Measurements reported in the nanobody polyreactivity screen of Harvey et al. (2022).

Experiment: yeast display, Sf9 membrane polyspecificity reagent, FACS + sequencing; frameworks hold sequencing errors
In short: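 Using colony PCR, genes from sorted yeast display clones were amplified, then sequenced on MiSeq at 2 × 250 and filtered by CDR length. The clones had been stained with 10% biotinylated, detergent-solubilized Sf9 membrane reagent for 1 hour at 4 °C and sorted by FACS into low and high (top ~1%) gates on anti-HA and streptavidin fluorescence. Polyreactivity labels come from the gate of origin.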
For “QVQLVESGGGLVQAGGSLRLSCAASGYTFSRYAMGWYRQAPGKERELVADISRSGGSTDYADSVKGRFTISRDNAKNTVYLQMNSLKPEDTAVYYCAKGSWWGYYSYGFDYWGQGTQVTVSS”, the “polyreactivity (PSR sort gate)” value was “high polyreactivity”. In the case of “QVQLVESGGGLVQAGGSLRLSCAASGYTFTINTMGWYRQAPGKERELVAAITWRGGSTYYADSVKGRFTISRDNANNTVYLQMNSLKPEDTAVYYCNKDYYITTTTFDYWGQGTQVTVSS”, the “polyreactivity (PSR sort gate)” value was “low polyreactivity”. In the case of “QVQLVESGGGLVQAGGSLRLSCAASGYTFTIYAMGWYRKAPGKERELVAAITGRGGRTNYADSVKGRFTISRDNAKNTVYLQMNSLKPEDTAVYYCNAVTKVVYHGPYGYDYWGQGTQVTVSS”, the “polyreactivity (PSR sort gate)” value was “high polyreactivity”. In the case of “QVQLVESGGGLVQAGGSLRLSCAASGYTFTSNDMGWYRQAPGKERELVAAITWSGGTTYYADSVKGRFTISRDNAKNTVYLQMNSLKPEDTAVYYCAAESTLPIIDRDDYWGQGTQVTVSS”, the “polyreactivity (PSR sort gate)” value was “low polyreactivity”. With “QVQLVESGGGLVQAGGSLRLSCAASGYTFVIYAMGSYRQAPGKERELVAAITTIGGRTYYADSVKGRFTISRDNAKNTVYLQMNSLKPEDTAVYYCAADIRSNRLYDGGYWGQGTQVTVSS” the “polyreactivity (PSR sort gate)” value was “low polyreactivity”. For “QVQLVESGGGLVQAGGSLRLSCAASGYTFVYNALGWYRQAPGKEREFVAAITWSGTSTRYADSVKGRFTISRDNAKNTVYIQMTSLQPEDTAVYYCAARRRSAQSGSYNHWGQGTQVTVSS”, the “polyreactivity (PSR sort gate)” value was “high polyreactivity”. In the case of “QVQLVESGGGLVQAGGSLRLSCAASGYTFVYNGMGWYRQAPGKERELVAAITWGGAGTYYADSVKGRFTISRDNAKNTVYLQMISLKPEDTSVYYCAPPSPRSRAYTYRGDYWGQGTQVTVSS”, the “polyreactivity (PSR sort gate)” value was “low polyreactivity”. In the case of “QVQLVESGGGLVQAGGSLRLSCAASGYTFVYYAMGLYRQAPGKERELVAAITSGGRTNYADSVKGRFTISRDNAKNTVYLQMKSLKPEDTAVYYCNVDGYYLFVRGYEYWGQGTQVTVSS”, the “polyreactivity (PSR sort gate)” value was “low polyreactivity”. With “QVQLVESGGGLVQAGGSLRLSCAASGYTFWQYAKGWYRQAPGKERELVVTITSRGGSTYYADSVKGRFTISRDNAKNTVYLHMNSLKPEDTAVYYCNARRRYSTRRSDYWGQGTQVTVSS” the “polyreactivity (PSR sort gate)” value was “high polyreactivity”. In the case of “QVQLVESGGGLVQAGGSLRLSCAASGYTFYAYAMGWYRQAPGTERELVAAITSGSSTYYADSVKGRFTISRDNAKNTVYLQMNSLKPEDTAVYYCSAEVFPGYDYWGQGTQVTVSS”, the “polyreactivity (PSR sort gate)” value was “low polyreactivity”. For “QVQLVESGGGLVQAGGSLRLSCAASGYTFYDNAMGWYRQAPGKEREFVASITWSGGSTYYADSVKGRVTISRDNAKNTVYLQMNSLKPEDTAVYYCAAESWFKYDYWGQGTQVTVSS”, the “polyreactivity (PSR sort gate)” value was “low polyreactivity”. With “QVQLVESGGGLVQAGGSLRLSCAASGYTFYINGMGWSRQAPGKERELVAVITWSSGSTYYADSVKGRFTISRDNAKNTVYLQMKSLKPEDTAVYYCAADVTYEDGAWTLQYDYWGQGTQVTVSA” the “polyreactivity (PSR sort gate)” value was “high polyreactivity”. In the case of “QVQLVESGGGLVQAGGSLRLSCAASGYTFYIYAMGWYIQAPGKERELVAAISWTDGSTYYADSVKGRFTISRDNAMNSVYLQMNSLKPEHTAVYYCAKTSLYAGAKEYDYWGQGTQVTVSS”, the “polyreactivity (PSR sort gate)” value was “low polyreactivity”. With “QVQLVESGGGLVQAGGSLRLSCAASGYTFYQNTMGWYRQAPGKERELVADITRRGGSTYYADSVKGRFTISRDNAKNTVYLQINSLKPEDTAVYYCAARYGPWTGYATYRYASSRYNYWGQGTQVTVSS” the “polyreactivity (PSR sort gate)” value was “high polyreactivity”. In the case of “QVQLVESGGGLVQAGGSLRLSCAASGYTFYRNAMGWYRQAPGKERELVAAIRDDGSTYYADSVKGRFTISRDNAKNTVYLQMNSLKPEDTAVYYCAAAIPRQYWFGISHRRYYYWGQGTQVTVSS”, the “polyreactivity (PSR sort gate)” value was “low polyreactivity”. With “QVQLVESGGGLVQAGGSLRLSCAASGYTFYSNAMGWYRQAPRKERELVASIRSRGRSTYYADSVKGRFTISRDNAKNTVDLQMNSLKPEDTAVYYCAALPNKPAVYAYDYWGQGTQVTVSS” the “polyreactivity (PSR sort gate)” value was “low polyreactivity”. In the case of “QVQLVESGGGLVQAGGSLRLSCAASGYTFYYAMGWYRQAPGKERELVAAISAGGGRTYYADSVKGRFTISRDNAKNTDYLQMNSLKPEDTAVYYCNRVYRLTAYGYDYWGQGTQVTVSS”, the “polyreactivity (PSR sort gate)” value was “high polyreactivity”. With “QVQLVESGGGLVQAGGSLRLSCAASGYTIESYTMGWYREAPGKEREFVAVISSSDTSTSYADSVKGRFTISRDNAKNTVYLQMNSLKPEDTAFYYCAAYSSPYYITYYWYNYDYWGQGTQVTVSS” the “polyreactivity (PSR sort gate)” value was “low polyreactivity”. In the case of “QVQLVESGGGLVQAGGSLRLSCAASGYTIIVNAMGWYRQAPGKERELVAAISWSSVSTYYADSVKGRFTISRDNAKNTVYLQMNSLKPEDTAVYYCAAEGYDYSQWFDYWGQGTQVTASS”, the “polyreactivity (PSR sort gate)” value was “high polyreactivity”. In the case of “QVQLVESGGGLVQAGGSLRLSCAASGYTIRYYAMGWYRQAPGKERELVAAISYSGGRTYYADSVKGRFTISRDNAKNTDYLQMNSLKPEDTAVYYCNAGYYSYRYRYGYDYWGQGTQVTVSS”, the “polyreactivity (PSR sort gate)” value was “high polyreactivity”. In the case of “QVQLVESGGGLVQAGGSLRLSCAASGYTLDGYAMGWYRQAPGKEREFVAAIPFRGGGTYYADSVKGRFTISRDNAKNTDYLQMNSLKPEDTAVYYCNADTYDPFPWGSDYWGQGTQVTVSS”, the “polyreactivity (PSR sort gate)” value was “high polyreactivity”. In the case of “QVQLVESGGGLVQAGGSLRLSCAASGYTLGPNTMGWYRQAPGKERELVATITYSGGSTYYADSVKGRFTISRDNAKNTVYLQMNSLKPEDTAVYYCAARYGSRRIPGSLGYWGQGTQVTVSS”, the “polyreactivity (PSR sort gate)” value was “high polyreactivity”. With “QVQLVESGGGLVQAGGSLRLSCAASGYTLGVNAMGWSRQAPGKERELVAAINYIDTRTYYADSVKGRFTISRDNAKNTVYLKLNSLKPEDTAVYYCAARPYVPWVKRYYYWGQGTQVTVSS” the “polyreactivity (PSR sort gate)” value was “low polyreactivity”. For “QVQLVESGGGLVQAGGSLRLSCAASGYTLRPNGMGWYRQAPGKERELVAAISSGGSTYYADSVKGRFTISRDNAKNTVYLQMISLKPEDTAVYYCAAEYWYDYWGQGTQVTVSS”, the “polyreactivity (PSR sort gate)” value was “low polyreactivity”. With “QVQLVESGGGLVQAGGSLRLSCAASGYTSRSNAMGWYRQAPGKERELVAAIRGGGNTKYADSVKWRFTISRDNANNTVYLQMNSLKPEDTAVYYCAVVTGSFRTRYTYYYWGQGTQVTVSS” the “polyreactivity (PSR sort gate)” value was “high polyreactivity”. For “QVQLVESGGGLVQAGGSLRLSCAASGYTSVGNAMGWYRPAPWKERELVAAITYNGGNTYYADSVKGRFRISRDNAKNTVYLQMNSLKPEDTAVSYCATDSQELASSRFDYWGQGTQVTVSS”, the “polyreactivity (PSR sort gate)” value was “low polyreactivity”. With “QVQLVESGGGLVQAGGSLRLSCAASGYTSYTYTMGWYRQAPGKDRELVAAISRRSDSTYSDSVKGRVTISRDNAKNSVYLQMNSLKPEDTAVYYCAAVRVSYRSLSKSYYWGQGTQVTVSS” the “polyreactivity (PSR sort gate)” value was “high polyreactivity”. In the case of “QVQLVESGGGLVQAGGSLRLSCAASGYTYSDNAMGWYRPAPGKERELVAAITSGVSTYYADSVKGRFTISRDNAKNTVYLQMNSPKPEDTAVYYCAKDVAVYADLYQGAPYGYWGQGTQVTVST”, the “polyreactivity (PSR sort gate)” value was “low polyreactivity”. For “QVQLVESGGGLVQAGGSLRLSCAASISSINAMGWYRQAPGKERELVAAIRWSGSSTYYADSVKGRFTISRDNAKNTVYLQMNSLKPEDTAVYYCAADTTTGDRGFDYWGQGTQVTVSS”, the “polyreactivity (PSR sort gate)” value was “high polyreactivity”. For “QVQLVESGGGLVQAGGSLRLSCAASRGIFWVYAMGWYRQATGKEREMVAAISNSDTSTSYADSVKGRFTISRDNAKNTVYLQMNSLKPEDTALYYCNADSPSLSGDYWGQGTQVTVSS”, the “polyreactivity (PSR sort gate)” value was “low polyreactivity”. With “QVQLVESGGGLVQAGGSLRLSCAASRLTFAGNAMGWYRQAPGKEREFVATITWSDGSTRYADSVKGRFTISRDNAKNSVYLQMNSLKPEDTAVSYCNTQYPDYFYEFNYWGQGTQVTVSW” the “polyreactivity (PSR sort gate)” value was “low polyreactivity”. In the case of “QVQLVESGGGLVQAGGSLRLSCAASRLTFRYYAMGWYRKAPGKERELVAAISSRGASTYYADSVKGRFTISRDNAKNTVYLQMNSLKPEDTAVYNCAVRTYVYHWSFSSLPYDYWGQGTQVTVSS”, the “polyreactivity (PSR sort gate)” value was “high polyreactivity”. With “QVQLVESGGGLVQAGGSLRLSCAASRLTFYGYGMGWYRQAPGKERELVASITSGGNTYYADSVKGRFTISRDNAKNTVYLRMNSLKPEDTAVYYCAVTAIALYYSSGYYWGQGTQVTVSS” the “polyreactivity (PSR sort gate)” value was “low polyreactivity”. For “QVQLVESGGGLVQAGGSLRLSCAASRRIFGQNVMGWYRQAPGKERELVAAITSAGRTYYADSVKGRFTISRDNAKNTVYLQMNSLKPEDTAVYYCAAYVRRGFDWGHGTQVTVSS”, the “polyreactivity (PSR sort gate)” value was “high polyreactivity”. For “QVQLVESGGGLVQAGGSLRLSCAASRRIFSFNAMGWYRQAPGKDRELVAGSTYGGNTYYADSVKGSFTISRDNAKNTVYLQMNSLKPEDTAVYYCAAVRGGRHDYWGQGTQVTVSS”, the “polyreactivity (PSR sort gate)” value was “low polyreactivity”. For “QVQLVESGGGLVQAGGSLRLSCAASRSIFPYNVMGWYRQAPGTEMELVAAISTRGGRTYYADSVKGRFTISRDYAKNTVYLQMNSLKPEDTAVYYCATAGGPYSDSGYYWGHGTQVTVSS”, the “polyreactivity (PSR sort gate)” value was “high polyreactivity”. For “QVQLVESGGGLVQAGGSLRLSCAASRSIFYRYAMGWYRQEPGKERELVAAISRSGGTTYYADSVKGRFTISRDNAKNTVYLQMNSQKPEDTAVYYCAARVFHPYSTDPFYYWGQGTQVTVSS”, the “polyreactivity (PSR sort gate)” value was “high polyreactivity”. In the case of “QVQLVESGGGLVQAGGSLRLSCAASRSTFPRYAMGWSRQAPGKERELVAAISSSGRTYYADSVKGRFTISRDNAKNTVYLQMNSLKPEDTAVYYCNAPVARGEASYYWGQGTEVTVSS”, the “polyreactivity (PSR sort gate)” value was “high polyreactivity”. For “QVQLVESGGGLVQAGGSLRLSCAASRSTFSGNAMGWYIQAPGKERELVATITSDGTTYYADSVKGRFTISRDNAKNNVYLLMNSLKPEDTAVYYCAARYTAYRDDYWGQGTHVTVSS”, the “polyreactivity (PSR sort gate)” value was “high polyreactivity”. With “QVQLVESGGGLVQAGGSLRLSCAASSIFRTYAMGWYRQAPGKERELVAAITWSGASTNYADSVKGRFTISRDNAKNTVYLQMNSLKPEDTAVYYCNADWRYYPSFKYYYWGQGTQVTVSS” the “polyreactivity (PSR sort gate)” value was “high polyreactivity”. With “QVQLVESGGGLVQAGGSLRLSCAASVFIFDTYTMGWYRQAPGKERELVAAITGSGVNTYYADSVKGRFTISRDNAKNTVYLQMNSLKPEDTAVYYCAARRKNRRDYDYYYWGQGTQVTVSS” the “polyreactivity (PSR sort gate)” value was “high polyreactivity”.
